How the values were obtained:
[1] = biological target: T1, hNav1.7-loopB1-C1-D1-llama Fc (human); assay: ELISA, coated loop-B1-C1-D1-llama Fc 20 ng/well, mAb titrated
T1 construct: whole entry: loops B1, C1, D1 joined by linkers, llama Fc; also called hNav1.7-loopB1-C1-D1-llfc
T1 chain: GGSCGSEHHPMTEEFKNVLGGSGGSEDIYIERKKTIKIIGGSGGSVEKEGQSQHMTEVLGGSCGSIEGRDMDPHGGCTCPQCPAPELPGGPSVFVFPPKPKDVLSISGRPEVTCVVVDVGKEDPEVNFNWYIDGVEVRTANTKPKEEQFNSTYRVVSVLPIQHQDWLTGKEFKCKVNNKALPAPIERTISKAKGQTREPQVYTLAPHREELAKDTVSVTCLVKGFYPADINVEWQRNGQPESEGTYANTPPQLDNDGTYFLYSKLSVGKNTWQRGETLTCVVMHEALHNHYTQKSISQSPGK
Experimental: mAbs originating from the loopA3-llama Fc immunization were assayed for their affinity for hNav1.7-loopA3. Therefore, a Maxisorp plate was coated with 10 ng/well of loopA3-llamaFc chimera and incubated overnight at 4° C. The next day, the plate was blocked with PBS+1% casein for 2 hours at RT. Subsequently a concentration gradient of antibodies was applied (range 0.25 pM-66 nM) for another hour. Antibody binding to loopA3 was detected using a HRP-conjugated anti-human Fc antibody (Abcam, Ab7499) (incubation 1 hour at RT, dilution 1/5000 in PBS+0.1% casein), followed by TMB addition and OD620 nm measurement. EC50 values were determined using GraphPad Prism software. For comparison purposes a known hNav1.7-loopA3 binding monoclonal antibody, UCB_932 (US2011/0135662), was tested.
In a next experiment, the binding affinity of the loop-specific mAbs was determined and compared to reference mAbs as described in US2011/0135662 (for loop A3: UCB_932, for loopB1-C1-D1: UCB_983, for loopC3: UCB_1066; US2011/0135662). Affinities were determined using an ELISA with a loop-coating of 10 ng/well (loopA3-llama Fc), 20 ng/well (loop-B1-C1-D1-llama Fc) or 50 ng/well (loopC3-llama Fc). The remainder of the experimental setup was identical to abovementioned binding ELISAs. Most of the mAbs show pM affinity for the respective hNav1.7 extracellular loop they are binding. […] The EC₅₀ for the reference mAbs could not be determined (nd) from the ELISA data available because the binding was too weak.

hNav1.5-B1-C1-D1-llFc = biological target: T2, hNav1.5-B1-C1-D1-llFc (human); assay: binding ELISA; the panel prints no target, by paragraph 288 and paragraph 555 the coated hNav1.5 loop B1-C1-D1-llama Fc
T2 construct: also called Nav1.5 extracellular loop B1-C1-D1 llamaFc chimera
T2 chain: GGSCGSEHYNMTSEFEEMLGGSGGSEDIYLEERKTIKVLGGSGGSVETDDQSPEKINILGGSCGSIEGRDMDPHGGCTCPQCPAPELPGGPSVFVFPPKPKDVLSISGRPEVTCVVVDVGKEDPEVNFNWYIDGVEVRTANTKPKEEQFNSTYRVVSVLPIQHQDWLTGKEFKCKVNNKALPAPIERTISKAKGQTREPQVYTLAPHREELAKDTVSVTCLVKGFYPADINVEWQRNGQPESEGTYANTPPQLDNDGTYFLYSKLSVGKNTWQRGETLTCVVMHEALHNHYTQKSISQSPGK
From the text: The therapeutic potency of an anti-hNav1.7 antibody will highly depend on the lack of binding to other Nay family members. Of particular interest is hNav1.5, which is expressed on cardiac muscle cells. As such, cross-reactive binding of hNav1.7 antibodies to hNav1.5 could lead to heart failure. To assay the specificity of the mAbs derived from DNA immunization for hNav1.7, the corresponding loopA3 and loopB1-C1-D1 sequences of hNav1.5 were cloned as llamaFc chimera and cross-reactivity was determined using a binding ELISA (FIG. 8). All clones, except clone 9A6 and 9H4, show no cross-reactivity to hNav1.5. In addition, cross reactivity for hNav1.2 was tested for the loopA3-binding clones 8A7 and 8B6 using hNav1.2 and hNav1.7 derived monomeric, GST-tagged loopA3 peptides (Abnova, H00006326-Q01 (hNav1.2) and H00006335-Q01 (hNav1.7)). Again, no cross-reactive binding was observed.

RatB1-C1-D1-llFc = biological target: T3, RatB1-C1-D1-llFc (rat); assay: binding ELISA; the panel prints no target, by paragraph 562 the coated rat loop B1-C1-D1-llama Fc
T3 construct: also called rat Nav1.7 loopB1-C1-D1 llamaFc chimera
T3 chain: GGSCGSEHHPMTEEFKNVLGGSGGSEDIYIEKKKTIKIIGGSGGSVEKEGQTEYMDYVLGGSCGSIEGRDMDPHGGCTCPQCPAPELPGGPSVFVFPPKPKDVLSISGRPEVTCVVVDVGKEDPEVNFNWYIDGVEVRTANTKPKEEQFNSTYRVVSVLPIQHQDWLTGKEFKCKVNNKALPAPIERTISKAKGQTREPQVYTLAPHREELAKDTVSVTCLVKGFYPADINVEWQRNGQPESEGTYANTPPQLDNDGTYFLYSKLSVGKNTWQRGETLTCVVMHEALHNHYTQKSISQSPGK

[2] = biological target: T4, hNav1.7-loopA3-llama Fc fusion (human); assay: binding ELISA on coated loop-llama Fc chimera (20 ng/well), OD620
T4 construct: also called hNav1.7-loopA3-llFc; loopA3-llamaFc chimera
T4 chain: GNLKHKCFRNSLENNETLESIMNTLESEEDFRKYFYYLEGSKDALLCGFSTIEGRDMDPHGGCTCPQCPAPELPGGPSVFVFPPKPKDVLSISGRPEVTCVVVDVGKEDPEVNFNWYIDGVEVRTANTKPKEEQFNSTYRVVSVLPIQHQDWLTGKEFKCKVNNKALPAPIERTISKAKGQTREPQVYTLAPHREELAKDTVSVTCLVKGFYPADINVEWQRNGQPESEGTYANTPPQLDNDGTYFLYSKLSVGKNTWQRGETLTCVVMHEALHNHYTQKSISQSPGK
Experimental: (§1) For all DNA-immunization derived mAbs the binding affinity for the various hNav1.7-loop-llama Fc chimeras was tested in a binding ELISA. Therefore, a Maxisorp plate (Nunc) was coated with 20 ng/well of hNav1.7-loopA3-llama Fc, hNav1.7-loopB1-C1-D1-llama Fc or hNav1.7-loopC3-llama Fc. Remainder of the ELISA setup is as described above. […] Only at very high concentration minor cross-reactivity is observed for some clones.

[3] = biological target: human Nav1.7 (full length) (human) (UniProt Q15858); assay: cell-based or functional assay
[4] = biological target: T1, hNav1.7-loopB1-C1-D1-llama Fc; assay: binding ELISA on coated loop-llama Fc chimera (20 ng/well), OD620
Experimental: as §1

Nt-GCGR-hFc [5] = biological target: T5, Nt-GCGR-hFc (human, UniProt P47871 26-136); assay: ELISA with a titration of biotin-Nt-GCGR (x axis) against the mAbs, OD620
T5 construct: domain: N-terminal domain; also called Nt-GCGR-Fc; recombinant N-terminal domain of GCGR; not shown: hFc

Nt-GCGR-hFc [6] = biological target: T5, Nt-GCGR-hFc; assay: mAb binding ELISA on coated Nt-GCGR-hFc
Experimental: Binding to GCGR- and CXCR4-lipoparticles (negative control) (A) and binding to Nt-GCGR-hFc (B). Lipoparticles were coated at 10 U/well. Nt-GCGR was coated at 1 μg/ml. mAbs were allowed to bind to the coated target at 1 μg/ml.

Nt-GCGR-hFc (human) = Nt-GCGR-hFc (human) (UniProt P47871); assay: scFv binding ELISA, periplasmic extract on coated Nt-GCGR
Sequence of Nt-GCGR-hFc (human) (P47871 26-136): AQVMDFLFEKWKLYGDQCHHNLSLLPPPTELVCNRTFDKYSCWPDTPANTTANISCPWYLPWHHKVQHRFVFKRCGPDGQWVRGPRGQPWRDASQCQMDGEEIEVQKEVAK

T5 sequence (P47871 26-136): as above

B1: 9C3 (antibody, V domains shown)
VH: EVQLVQPGAELRNPGTSVKVSCKTSGYYFTSSDIQWVRQAPAQGLEWMGRIDPEDGATKYAPKFQGRVTFTADTFTRTAYVELSNLRSDDTAVYYCMTAGGEYWGKGTLVTVSS
VL: QPVLNQPSALSVSLGQTARITCQGGDFRNYYNNWYQQKPGQAPVLVIYEDSERPSGIPERFSGSSSGDTVILTVSRVQADDEADYYCQSSDSTDNAVFGGGTHLTVL
notes: chimeric llama-human, human IgG1 constant domains
EC50 [1]: 0.17 nM
binding result (hNav1.5-B1-C1-D1-llFc): no binding (tested: about 130 nM)
binding result (RatB1-C1-D1-llFc): binds
binding result [2]: binds
% inhibition of inward current following P02 voltage protocol, 10 µg/ml [3]: 18.3%
% inhibition of inward current following P02 voltage protocol, 25 µg/ml [3]: 21.6%
% inhibition of inward current following P02 voltage protocol, 100 µg/ml [3]: 36.9%

B2: 9G6 (antibody, human IgG1, V domains shown)
VH: EVQLVQPGAELTKPGASVKVSCNTSGYTFTGYYIDWVRQVPGEGLEWMGRIDPEDGDTKYAQKFQGRVTITADTSTTTAYMELSSLRSEDTAVYYCSLGVDYWGQGTQVTVSS
VL: ATMLTQSPGSLSVVPGESASISCKTSQSLVHSDGKTYLYWLLQKPGQSPQRLIYQVSNRDSGVPDRFTGSGSGTDFTLKISGVKAEDAGVYYCAQTTYDPVTFGQGTKVELK
binding result (hNav1.5-B1-C1-D1-llFc): no binding (tested: about 130 nM)
binding result [4]: binds
% inhibition of inward current following P02 voltage protocol, 10 µg/ml [3]: 11.8%
% inhibition of inward current following P02 voltage protocol, 25 µg/ml [3]: 22.8%
% inhibition of inward current following P02 voltage protocol, 100 µg/ml [3]: 37.5%

B3: mAb 6A1 (antibody, IgG1, V domains shown)
VH: EVQLVESGGGLVQPGGSLRLSCAASGFTFSRNAMTWVRQAPGKGLEWVSAISSTGNSITEADSVKGRFTISRDNAKNMLYLQMNSLKPEDTAVYYCAKLGGDTWYMEYWGQGTQVTVSS
VL: SYELTQSPSMSVALRQTAKITCGGNNIGSKSAQWYQQKPGQAPVLVIYADNRRPSGIPERFSGSNSGNTATLTISGAQAEDEADYYCQVWDSSANAVFGRGTHLTVLG
binding result (Nt-GCGR-hFc [5]): no binding (tested: about 20 ng/ml biotin-Nt-GCGR)

B4: mAb 6B7 (antibody, IgG1, V domains shown)
VH: QLQLVESGGGLVQPGGSLRLSCAASGFTFSSNAMTWVRQAPGKGLEWVSAISSTGNSITEADSVKGRFTISRDNAKNMLYLQMNSLKPEDTAVYYCAKLGGDTWYMEYWGQGTQVTVSS
VL: SSALTQPSAVSVSLGQTARITCQGDNFGSIDPHWYQQKPGQDPVVVIYQYNNRPSGIPERFSGLKSGNTATLIISGAQAEDEADYYCQLWDSRAKAVFGGGTHLTVLG
binding result (Nt-GCGR-hFc [6]): no binding (tested: 1 µg/ml)

B5: scFv A3 (scFv, part only; not given: GS linker, not shown: small tags and cut ends)
scFv, part: QVQVQESGGGLVQPGGSLRLSCATSGFTFSNYYMSWVRQAPGKGPEWVSSIYSDLSTTYYADSVKGRFTISRDRAKNTLYLQMNSLKSEDTAVYYCARLSTVAGVDYWGKGTLVTVSSSYELTQSPSVSVALRQTAKITCGGNNIGSKSAQWYQQKPGQAPVLVIYADYRRPSGIPERFSGSNSGNTATLTISGAQAEDEADYYCQVWDSSANAAVFGGGTHLTVLG
ScFv binding ELISA signal (Nt-GCGR-hFc (human)): 0.883

B6: scFv B1 (scFv, part only; not given: GS linker, not shown: small tags and cut ends)
scFv, part: QVQVQESGGGLVQPGGSLRLSCATSGFTFSNYYMSWVRQAPGKGPEWVSSIYSDLSTTYYADSVKGRFTISRDRAKNTLYLQMNSLKSEDTAVYYCARLSTVAGVDYWGKGTLVTVSSSYELTQSPSVSVALRQTAKITCGGNNIGSKSAQWYQQKPGQAPVLVIYADYRRPSGIPERFSGSNSGNTATLTISGAQAEDEADYYCQVWDSSANAAVFGGGTHLTVLG
ScFv binding ELISA signal (Nt-GCGR-hFc (human)): 0.749

B7: mAb 6A5 (antibody, IgG1, V domains shown)
VH: EVQLQESGGGSVQPGGSLRLSCAASGFTFSANAMTWVRQAPGKGLEWVSAISGTGASTSYADSVKGRFTVSRDNAKNTLYLQVNNLKPEDTAVYRCAKLGGDTWYMEYWAKGTLVTVSS
VL: SYELTQSPSVSVALRQTAKITCGGDNIGSKYVNWYQQKPSQTPVLVIYKDSNRPSGIPERFSGSNSGNTAALTISGAQAEDEADYYCQVWDGSAAVFGGGTHLSVLG
binding result (Nt-GCGR-hFc [5]): no binding (tested: about 20 ng/ml biotin-Nt-GCGR)

From patent US20160207996A1 (ARGEN X N V, published 2016)
